The text below walks through data of patent US20240060043A1.

This assay addresses FMC63 protein (Example 2). The assay can be described thus: ELISA, 500 ng/well coated FMC63, fresh biotinylated fusion protein at 500 or 0.5 ng/well, 4° C. (In general: An ELISA detects its analyte on a solid surface through an enzyme-linked reagent.)

As for “TNF-α:CD19 ECD fusion protein (ClonedTNFFP)”, the fold increase in absorbance over wells without fusion protein was greater than 7 fold.
